Assay results taken from paper PMC4460818.

Target: His-NDR1^3E (human) (UniProt Q15208)
Sequence (Q15208 other isoform, or with tags, fused parts or gaps): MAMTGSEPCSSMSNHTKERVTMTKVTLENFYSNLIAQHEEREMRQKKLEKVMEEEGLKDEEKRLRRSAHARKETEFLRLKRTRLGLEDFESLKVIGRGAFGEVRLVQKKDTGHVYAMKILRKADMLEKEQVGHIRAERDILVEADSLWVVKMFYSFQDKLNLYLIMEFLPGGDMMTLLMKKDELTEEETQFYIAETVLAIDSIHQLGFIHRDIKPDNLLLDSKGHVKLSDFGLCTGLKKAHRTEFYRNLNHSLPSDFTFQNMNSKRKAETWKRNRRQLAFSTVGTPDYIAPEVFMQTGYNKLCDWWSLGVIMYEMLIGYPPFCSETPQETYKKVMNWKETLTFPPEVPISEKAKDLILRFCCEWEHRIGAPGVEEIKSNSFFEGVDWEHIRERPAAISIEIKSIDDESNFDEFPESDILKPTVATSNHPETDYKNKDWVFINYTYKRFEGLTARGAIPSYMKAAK

A Km toward the 10-mer substrate peptide SP in a fluorimetric kinase assay, relative to wild type NDR1 of 1.7 fold was found for KKRNRRLSVA [10-mer NDR1 substrate peptide] in this work.
